MFI data for nine molecules are collected here from patent EP4786492A1.

Residue numbers refer to the chain shown, from its start.

Test [1] deals with human DLL3 endogenously expressed on SHP77 and NCI-H82 cells (human) (UniProt Q9NYJ7). The experiment in a line: FACS SHP77 cells, 0.16 nM.
For test [2] the target is unchanged. The experiment in a line: FACS SHP77 cells, 100 nM.
Test [3] has the same target. The experiment in a line: FACS SHP77 cells, 0.00128 nM.
Test [4] shares this target. Nature of the test: FACS SHP77 cells, 4 nM.
For test [5] the target is unchanged. The experiment in a line: FACS SHP77 cells, 0.032 nM.
Test [6] shares this target. Nature of the test: FACS SHP77 cells, 0.8 nM.
The target is the same in test [7]. The experiment in a line: FACS SHP77 cells, 0.0064 nM.
The target is the same in test [8]. The experiment in a line: FACS SHP77 cells, 20 nM.

Sequence of human DLL3 endogenously expressed on SHP77 and NCI-H82 cells (human) (Q9NYJ7 27-618): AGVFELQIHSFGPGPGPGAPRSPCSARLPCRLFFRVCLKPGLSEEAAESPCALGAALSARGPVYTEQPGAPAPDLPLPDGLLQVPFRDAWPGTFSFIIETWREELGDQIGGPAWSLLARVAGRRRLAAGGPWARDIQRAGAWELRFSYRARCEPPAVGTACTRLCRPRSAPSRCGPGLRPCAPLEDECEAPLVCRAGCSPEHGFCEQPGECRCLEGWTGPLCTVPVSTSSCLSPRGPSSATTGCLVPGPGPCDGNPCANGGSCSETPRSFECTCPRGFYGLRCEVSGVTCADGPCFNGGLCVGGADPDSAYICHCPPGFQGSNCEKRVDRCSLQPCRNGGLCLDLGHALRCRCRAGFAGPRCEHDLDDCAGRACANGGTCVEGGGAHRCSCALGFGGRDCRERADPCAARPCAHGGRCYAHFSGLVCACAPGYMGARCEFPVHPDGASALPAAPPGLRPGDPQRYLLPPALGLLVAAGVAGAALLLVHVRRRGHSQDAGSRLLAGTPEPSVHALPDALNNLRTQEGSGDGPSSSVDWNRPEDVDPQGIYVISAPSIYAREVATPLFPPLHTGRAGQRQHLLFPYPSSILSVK

B1: mab016 scFv-hFc (Fc fusion, not shown: small tags and cut ends; a dimerising Fc or GST)
scFv (part 1 of 2): DIVMTQSQKFMSTTIGDRVSITCKASQNVGTTVAWYQQKPGQSPNLLLYSTSNRFTGVPDRFTGSGSGTDFTLTITNMQSEDLADYFCQQYNNYPLTFGGGTKLEIK
scFv (part 2 of 2): EVNLEESGGGLVQPGGSMKLSCVASGFAFSNFWMQWVRQSPEKGLEWVAQIRLKSDNYAAHYAESVKGRFTISRDDSKSSVYLQLNNLRAEDTGTYYCTQGNWVGFAYWGQGTLVTVSA
As for B1, the MFI in test [1] is 391 MFI; in test [2], 790 MFI; in test [3], 96 MFI; in test [4] it was 546 MFI; in test [5], 202 MFI; in test [6], 502 MFI. In addition, the figures for the MFI in test [7] and in test [8] were 121 MFI and 653 MFI, respectively.

B2: mab012 scFv-hFc (Fc fusion, not shown: small tags and cut ends; a dimerising Fc or GST)
scFv (part 1 of 2): DVLMTQTPLSLPVSLGDQASISCRSSQSIVHSDGNTYLEWYLQKPGQSPKLLIYKVSNRFSGVPDRFSGSGSGTDFTLKISRVEAEDLGFYYCFQGSHVPFTFGSGTKLEIK
scFv (part 2 of 2): QVQLQQSGPELVKPGASVKISCKASGYTFTDYYIHWVKQRPGQGLEWIGWTLPGSGSPYYNEKFKGKATLTVDKSSSTAYMLLSSLTSEDSAVYFCARWHYYYGSSYHFDYWGQGTTLTVSS
On to B2, for which the MFI in test [1] turned out to be 110 MFI; in test [2] it was 1100 MFI; in test [3] it was 94 MFI; in test [4] it was 337 MFI; in test [5] it was 98 MFI; in test [6], 164 MFI. Moreover, the MFI in test [7] came out at 94 MFI; in test [8], 729 MFI.

B3: mab002 scFv-hFc (Fc fusion, not shown: small tags and cut ends; a dimerising Fc or GST)
scFv (part 1 of 2): QIVLTQSPAIMSASPGEKVTMTCSARSSVSYMQWYQQKSGTSPKRWIYDTSKLASGVPARFSGSGSGTSYSLTISTMEAEDAATYYCQQWSSDPPTFGGGTKLEIK
scFv (part 2 of 2): QIQLVQSGPELKKPGETVKISCKASGYTFTNYGMNWLKQAPGKGLKWMGWINTYTGESTYADDFKGRFAFSLETSASTVYLQINNLKNEDMATYFCARMGDGYYDFTMDYWGQGTSVTVSS
With B3, the MFI stood at 518 MFI in test [1]; 596 MFI in test [2]; 197 MFI in test [3]; 535 MFI in test [4]; 371 MFI in test [5]; 498 MFI in test [6]. In addition, the values for the MFI in test [7] and in test [8] were 255 MFI and 548 MFI, respectively.

B4: mab007 scFv-hFc (Fc fusion, not shown: small tags and cut ends; a dimerising Fc or GST)
scFv (part 1 of 2): DVQITQSPSYLAASPGETITINCRASTSISKYLAWYQERPGKTNKLLIYSGSTLQSGIPSRFRGSGSGTDFTLTISSLEPEDFAMYYCQQHHVYPYTFGGGTKLEIK
scFv (part 2 of 2): QVQLQQPGAELVRPGTSVKLSCKASGYTFTSYWMHWVKQRPGQGLEWIGVIDPSDSLANYNQEFKGKATLTVDTSSSTAYMQLSSLTSEDSAVYYCARDSTVVAPMDYWGQGTSVTVSS
On to B4, for which the MFI in test [1] is 406 MFI; in test [2], 521 MFI; in test [3], 103 MFI; in test [4], 563 MFI; in test [5], 227 MFI; in test [6], 525 MFI. Moreover, the results for the MFI in test [7] and in test [8] were 135 MFI and 634 MFI, respectively.

B5: mab006 scFv-hFc (Fc fusion, not shown: small tags and cut ends; a dimerising Fc or GST)
scFv (part 1 of 2): B4 scFv (part 1 of 2) with S26T, T27K, R39K, Y49F, V93E
scFv (part 2 of 2): B4 scFv (part 2 of 2) with K38R
In the case of B5, the MFI was determined as 497 MFI in test [1]; 876 MFI in test [2]; 112 MFI in test [3]; 664 MFI in test [4]; 267 MFI in test [5]; 643 MFI in test [6]. The MFI in test [7] is 152 MFI; in test [8], 718 MFI.

B6: mab014 scFv-hFc (Fc fusion, not shown: small tags and cut ends; a dimerising Fc or GST)
scFv (part 1 of 2): DIQMTQSSSSFSVSLGDRVTITCKASEDIYNRLAWYQQKPGNTPRLLISGATSLETGVPSRFSGSGSGKDFTLSITSLQTEDVATYYCQQYWSLPWTFGGGTKLEIK
scFv (part 2 of 2): EVQLHQSGPELVKPGTSVKISCKASGYTFTDYYMNWVKQSHGKSLEWIGDINPNHGDTGYNQKFTGKATLTVDKSSSTAYMELRSLTSEDSAVYYCARNFFYYGTTYGWYFDVWGTGTTVTVSS
On to B6, for which the MFI in test [1] came out at 237 MFI; in test [2], 1200 MFI; in test [3], 96 MFI; in test [4], 681 MFI; in test [5], 137 MFI; in test [6], 461 MFI. Moreover, the MFI in test [7] was 104 MFI; in test [8] it was 829 MFI.

B7: mab008 scFv-hFc (Fc fusion, not shown: small tags and cut ends; a dimerising Fc or GST)
scFv (part 1 of 2): DIVMTQSQKFMSTSVGDRVSITCKASQNVGTAVAWYQQKPGQSPKLLIFSASIRYTGVPDRFTGSGSGTDFTLTISNMQSEDLADYFCQQYSSSPYTFGGGTKLEIK
scFv (part 2 of 2): EVQLQQSGPVLVKPGASVKMSCKASGYTFTDYYMNWVKRSHGKSLEWIGIINPYNGGTSYNQKFRGKATLTVDKSSNTAYMELNSLTSEDSAVYYCSRYDYDYDVEGAMDYWGQGTSVTVSS
For B7, the MFI worked out at 130 MFI in test [1]; 412 MFI in test [2]; 82 MFI in test [3]; 365 MFI in test [4]; 98 MFI in test [5]; 208 MFI in test [6]. For the same molecule, the MFI in test [7] is 90 MFI; in test [8], 468 MFI.

B8: mab005 scFv-hFc (Fc fusion, not shown: small tags and cut ends; a dimerising Fc or GST)
scFv (part 1 of 2): DIVLTQSPATLSVTPGDSVSLSCRASQSVSNDLHWYQQKSHESPRLLIKYASQSISGIPSRFSGSGSGTDFTLTINSVETEDFGMYFCQQSNNWPYTFGGGTKLEMK
scFv (part 2 of 2): QVQLQQSGAELMKPGASVTLSCKATGYTLPGYWIEWVKQRPGHGLEWIGEILPGSSSANYNEKFKGKATFTADTSSNTAYMQLSSLTTEDSAIYYCASTYGTSLDYWGQGTTLTVSS
With B8, the MFI in test [1] was 287 MFI; in test [2] it was 543 MFI; in test [3] it was 117 MFI; in test [4] it was 451 MFI; in test [5] it was 172 MFI; in test [6] it was 404 MFI. Also, the MFI in test [7] turned out to be 125 MFI; in test [8], 486 MFI.

B9: mab011 scFv-hFc (Fc fusion, not shown: small tags and cut ends; a dimerising Fc or GST)
scFv (part 1 of 2): B8 scFv (part 1 of 2) with V29I, D32N, T74S, N93S, Y96W, M106I
scFv (part 2 of 2): EVQLQQSGPELVKPGASVKISCKASGYTFTDYYMNWVKQSHGKSLEWIGDISPNYGGTNYNQKFKGKATLTVDKSSSTACMELRSLTSEDSAVYYCTRSFYYYGTGYDWYFDVWGTGTTVTVSS
Regarding B9, the MFI is 239 MFI in test [1]; 822 MFI in test [2]; 90 MFI in test [3]; 508 MFI in test [4]; 146 MFI in test [5]; 417 MFI in test [6]. The values for the MFI in test [7] and in test [8] were 103 MFI and 608 MFI, respectively.
